Molecular target: UNC5H4 receptor of the pericytes and smooth muscle cells
Experiment: cell-based or functional assay

B1: mutated netrin 4 (SEQ ID NO: 522), recombinant protein (ligand)
chain: LSGVAGVSSRCEKACNPRMGNLALGRKLWADTTCGQNATELYCFYSENTDLTCRQPKCDKCNAAYPHLAHLPSAMADSSFRFPRTWWQSAEDVHREKIQLDLEAEFYFTHLIVMFKSPRPAAMVLDRSQDFGKTWKPYKYFATNCSATFGLEDDVVKKGAICTPKYSSPFPCTGGEVIFKALSPPYDTENPYSAKVQEQLKITNLRVQLLKRQSYPCQRNDLNEEPQHFTHYAIYDFIVKGSCFCNGHADQCIPVHGFRPVKAPGTFHMVHGKCMCKHNTAGSHCQHCAPLYNDRPWEAADGKTGAPNECRTRKCNGHADTCHFDVNVWEASGSRSGGVCDDCQHNTEGQYCQRCKPGFYRDLRRPFSAPDACKPCSCHPVGSAVLPANSVTFCDPSNGDCPCKPGVAGRRCDRCMVGYWGFGDYGCRPCDCAGSCDPITGDCISSHTDIDWCHEVPDFRPVHNKSEPAWEWEDAQGFSALLHSGKCECKEQTLGKAKAFCGMKYSYVLKIKILSAHDKGTHVEVNVKIKKVLKSTKLKIFRGKRTLYPESWTDRGCTCPILNPGLEYLVAGHEDIRTGKLIVNMKSFVQHWKPSLGRKVMDILKRECK
- VSM migration: chemotactic activity relative to non-mutated netrin 4: 3000 fold over non-mutated netrin 4
- VSM proliferation: mitogenic activity relative to non-mutated netrin 4: 1000 fold over non-mutated netrin 4

— patent US20100183588A1 (IVS INSTITUT DES VAISSEAUX ET DU SANG, published 2010)
